According to doi:10.1101/071829:
Read-outs that look alike come from different tables or passages of the source.

Experiments:
Assay in all cases: SEC
[1] = target: C. difficile replicative helicase CD3657, purified non-tagged (Clostridium difficile 630)
[2] = target: C. difficile replicative helicase CD3657, purified non-tagged (Clostridium difficile 630); remark: listed apart in the source
[3] = target: C. difficile putative helicase loader ATPase CD3654, purified non-tagged (Clostridium difficile 630)
[4] = target: C. difficile replicative helicase CD3657, purified non-tagged (Clostridium difficile 630); remark: listed apart in the source

C. difficile replicative helicase CD3657, purified non-tagged (enzyme)
stoichiometry N [1]: 6 | stoichiometry N [2]: 6 | stoichiometry N (CD3657 per CD3654 (6:6)) [3]: 1 | stoichiometry N [4]: 6
